Experimental data: IntAct's records for PubMed 22562154

B1: Importin subunit beta-5 (Saccharomyces cerevisiae), P53067 (parent)
chain: MDINELIIGAQSADKHTREVAETQLLQWCDSDASQVFKALANVALQHEASLESRQFALLSLRKLITMYWSPGFESYRSTSNVEIDVKDFIREVLLKLCLNDNENTKIKNGASYCIVQISAVDFPDQWPQLLTVIYDAISHQHSLNAMSLLNEIYDDVVSEEMFFEGGIGLATMEIVFKVLNTETSTLIAKIAALKLLKACLLQMSSHNEYDEASRKSFVSQCLATSLQILGQLLTLNFGNVDVISQLKFKSIIYENLVFIKNDFSRKHFSSELQKQFKIMAIQDLENVTHINANVETTESEPLLETVHDCSIYIVEFLTSVCTLQFSVEEMNKIITSLTILCQLSSETREIWTSDFNTFVSKETGLAASYNVRDQANEFFTSLPNPQLSLIFKVVSNDIEHSTCNYSTLESLLYLLQCILLNDDEITGENIDQSLQILIKTLENILVSQEIPELILARAILTIPRVLDKFIDALPDIKPLTSAFLAKSLNLALKSDKELIKSATLIAFTYYCYFAELDSVLGPEVCSETQEKVIRIINQVSSDAEEDTNGALMEVLSQVISYNPKEPHSRKEILQAEFHLVFTISSEDPANVQVVVQSQECLEKLLDNINMDNYKNYIELCLPSFINVLDSNNANNYRYSPLLSLVLEFITVFLKKKPNDGFLPDEINQYLFEPLAKVLAFSTEDETLQLATEAFSYLIFNTDTRAMEPRLMDIMKVLERLLSLEVSDSAAMNVGPLVVAIFTRFSKEIQPLIGRILEAVVVRLIKTQNISTEQNLLSVLCFLTCNDPKQTVDFLSSFQIDNTDALTLVMRKWIEAFEVIRGEKRIKENIVALSNLFFLNDKRLQKVVVNGNLIPYEGDLIITRSMAKKMPDRYVQVPLYTKIIKLFVSELSFQSKQPNPEQLITSDIKQEVVNANKDDDNDDWEDVDDVLDYDKLKEYIDDDVDEEADDDSDDITGLMDVKESVVQLLVRFFKEVASKDVSGFHCIYETLSDSERKVLSEALL

Variants of: B1
Settings: with gsp1_yeast GSP1, P32835

| effect of a mutation on the interaction | Variant |
| --- | --- |
| decreasing interaction | K909R |
